Where “and” joins values, the source holds several entries; their conditions need not be identical. Equal values may be shown once.
Biological target: the molecule itself
Experiment: cross-linking; A549 cells washed with PBS pH 8.0 and treated with BS3 for 1 h at room temperature before lysis in loading buffer; dimers and tetramers by immunoblot; cells with eEF2K depletion, overexpression or A484954

B1: FLAG-PKM2 T129A (enzyme)
chain: not shown
notes: human PKM2 from the vector pWZL-FLAG-PKM2 (Addgene #20585) with the point mutation T129A made by PCR mutagenesis; source: A549 cells expressing it, in cells (cross-linked with BS3 before lysis)
  stoichiometry N: 4 and 2

Reference: publication PMC7020344, “The eEF2 kinase-induced STAT3 inactivation inhibits lung cancer cell proliferation by phosphorylation of PKM2” (Cell Communication and Signaling : CCS, 2020)
